Data on one molecule can be found in PMC5474359.

The assay deals with T1, CD-86, P42081.
T1 chain: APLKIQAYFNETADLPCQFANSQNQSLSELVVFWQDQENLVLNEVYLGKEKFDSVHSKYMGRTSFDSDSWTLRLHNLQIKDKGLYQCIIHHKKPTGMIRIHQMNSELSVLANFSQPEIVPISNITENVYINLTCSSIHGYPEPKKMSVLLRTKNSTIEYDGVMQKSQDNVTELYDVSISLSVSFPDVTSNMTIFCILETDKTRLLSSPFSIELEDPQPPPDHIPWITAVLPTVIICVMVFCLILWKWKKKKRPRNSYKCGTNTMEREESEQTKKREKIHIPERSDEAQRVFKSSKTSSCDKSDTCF
Briefly: fluorescence correlation spectroscopy with photon counting histogram. As to conditions: remark: other sources report otherwise.

B1: CD-86, P42081 24-329 (receptor)
chain: T1 chain
B1 yielded a PCH molecular brightness of 9360 CPSM.
